Results published in US20230265151A1, “GIP/GLP1 CO-AGONIST COMPOUNDS” (priority 2020, published 2023).
Positions count from the first letter of the chain named.

T1: human GIP receptor (human, UniProt P48546 22-466)
T1 sequence (looked up): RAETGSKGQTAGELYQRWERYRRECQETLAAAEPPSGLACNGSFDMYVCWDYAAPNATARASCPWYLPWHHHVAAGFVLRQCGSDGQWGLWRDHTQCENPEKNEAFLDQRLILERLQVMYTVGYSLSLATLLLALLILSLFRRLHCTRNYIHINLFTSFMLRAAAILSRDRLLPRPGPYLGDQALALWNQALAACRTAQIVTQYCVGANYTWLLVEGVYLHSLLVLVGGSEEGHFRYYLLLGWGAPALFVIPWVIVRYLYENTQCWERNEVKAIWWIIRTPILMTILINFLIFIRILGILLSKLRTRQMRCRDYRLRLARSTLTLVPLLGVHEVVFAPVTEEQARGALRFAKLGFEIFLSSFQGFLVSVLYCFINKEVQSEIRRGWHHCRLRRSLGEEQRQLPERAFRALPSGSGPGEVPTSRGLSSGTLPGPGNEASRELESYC

B1: Example 4 (peptide)
peptide: YXEGTXTSDXSIXLDXKAQXEFIXXLIEGGKSSGAPPPS
modifications: Aib2, αMeF(2F)6, 4Pal10, αMeL13, Orn16, Aib20, D-Glu24, αMeY25, K17 and K31: K(AEEA2-(γ-Glu)-(4-(4-tert-butylphenyl)butanoyl)), C-terminal NH2
B2: Example 66 (peptide)
peptide: B1 peptide with F22X
modifications: Aib2, αMeF(2F)6, 4Pal10, αMeL13, Orn16, Aib20, 1Nal22, D-Glu24, αMeY25, K17 and K31: K(AEEA2-(γ-Glu)-CO-(CH2)12-CO2H), C-terminal NH2
B3: Example 65 (peptide)
peptide: B1 peptide with F22X
modifications: Aib2, αMeF(2F)6, 4Pal10, αMeL13, Orn16, Aib20, 3,5FPhe22, D-Glu24, αMeY25, K17 and K31: K(AEEA2-(γ-Glu)-CO-(CH2)12-CO2H), C-terminal NH2
B4: Example 57 (peptide)
peptide: B1 peptide
modifications: Aib2, αMeF(2F)6, 2Nal10, αMeL13, Orn16, Aib20, D-Glu24, αMeY25, K17 and K31: K(AEEA2-(γ-Glu)-CO-(CH2)12-CO2H), C-terminal NH2
B5: Example 68 (peptide)
peptide: B1 peptide with X24E, X25K, K31P
modifications: Aib2, αMeF(2F)6, 4Pal10, αMeL13, Orn16, Aib20, K17 and K25: K(AEEA2-(γ-Glu)-(4-(4-tert-butylphenyl)butanoyl)), C-terminal NH2
B6: Example 71 (peptide)
peptide: B1 peptide with K17I, X24K
modifications: Aib2, αMeF(2F)6, 4Pal10, αMeL13, Orn16, Aib20, αMeY25, K24 and K31: K(AEEA2-(γ-Glu)-CO-(CH2)12-CO2H), C-terminal NH2
B7: Example 67 (peptide)
peptide: B1 peptide with X25K, K31P
modifications: Aib2, αMeF(2F)6, 4Pal10, αMeL13, Orn16, Aib20, D-Glu24, K17 and K25: K(AEEA2-(γ-Glu)-(4-(4-tert-butylphenyl)butanoyl)), C-terminal NH2
B8: Example 62 (peptide)
peptide: B1 peptide with F22X
modifications: Aib2, αMeF(2F)6, 4Pal10, αMeL13, Orn16, Aib20, 3ClPhe22, D-Glu24, αMeY25, K17 and K31: K(AEEA2-(γ-Glu)-CO-(CH2)12-CO2H), C-terminal NH2
B9: Example 7 (peptide)
peptide: B1 peptide
modifications: Aib2, αMeF(2F)6, 4Pal10, αMeL13, Orn16, Aib20, D-Glu24, αMeY25, K17 and K31: K(AEEA2-(γ-Glu)-CO-(CH2)14-CH3), C-terminal NH2
B10: Example 8 (peptide)
peptide: B1 peptide
modifications: Aib2, αMeF(2F)6, 4Pal10, αMeL13, Orn16, Aib20, D-Glu24, αMeY25, K17 and K31: K(AEEA2-(γ-Glu)-CO-(CH2)12-CH3), C-terminal NH2
B11: Example 76 (peptide)
peptide: B1 peptide with E21K, K31P
modifications: Aib2, αMeF(2F)6, 4Pal10, αMeL13, Orn16, Aib20, D-Glu24, αMeY25, K17 and K21: K(AEEA-(γ-Glu)-CO-(CH2)12-CO2H), C-terminal NH2
B12: Example 77 (peptide)
peptide: B1 peptide with E21K, K31P
modifications: Aib2, αMeF(2F)6, 4Pal10, αMeL13, Orn16, Aib20, D-Glu24, αMeY25, K17 and K21: K(AEEA3-(γ-Glu)-CO-(CH2)12-CO2H), C-terminal NH2
B13: Example 58 (peptide)
peptide: B1 peptide
modifications: Aib2, αMeF(2F)6, OMeY10, αMeL13, Orn16, Aib20, D-Glu24, αMeY25, K17 and K31: K(AEEA2-(γ-Glu)-CO-(CH2)12-CO2H), C-terminal NH2
B14: Example 63 (peptide)
peptide: B1 peptide with F22X
modifications: Aib2, αMeF(2F)6, 4Pal10, αMeL13, Orn16, Aib20, 2FPhe22, D-Glu24, αMeY25, K17 and K31: K(AEEA2-(γ-Glu)-CO-(CH2)12-CO2H), C-terminal NH2
B15: Example 60 (peptide)
peptide: B1 peptide
modifications: Aib2, αMeF(2F)6, Nle10, αMeL13, Orn16, Aib20, D-Glu24, αMeY25, K17 and K31: K(AEEA2-(γ-Glu)-CO-(CH2)12-CO2H), C-terminal NH2
B16: Example 74 (peptide)
peptide: B1 peptide with K17I, E21K
modifications: Aib2, αMeF(2F)6, 4Pal10, αMeL13, Orn16, Aib20, D-Glu24, αMeY25, K21 and K31: K(AEEA2-(γ-Glu)-CO-(CH2)12-CO2H), C-terminal NH2
B17: Example 78 (peptide)
peptide: B1 peptide with E21K, K31P
modifications: Aib2, αMeF(2F)6, 4Pal10, αMeL13, Orn16, Aib20, D-Glu24, αMeY25, K17 and K21: K(AEEA2-CO-(CH2)12-CO2H), C-terminal NH2
B18: Example 83 (peptide)
peptide: B1 peptide with X24K, K31P
modifications: Aib2, αMeF(2F)6, 4Pal10, αMeL13, Orn16, Aib20, αMeF25, K17 and K24: K(AEEA2-(γ-Glu)-CO-(CH2)12-CO2H), C-terminal NH2
B19: Example 56 (peptide)
peptide: B1 peptide
modifications: Aib2, αMeF(2F)6, 1Nal10, αMeL13, Orn16, Aib20, D-Glu24, αMeY25, K17 and K31: K(AEEA2-(γ-Glu)-CO-(CH2)12-CO2H), C-terminal NH2
B20: Example 73 (peptide)
peptide: B1 peptide with K17I, E21K, E28K, K31P
modifications: Aib2, αMeF(2F)6, 4Pal10, αMeL13, Orn16, Aib20, D-Glu24, αMeY25, K21 and K28: K(AEEA2-(γ-Glu)-CO-(CH2)12-CO2H), C-terminal NH2
B21: Example 80 (peptide)
peptide: B1 peptide with X24K, K31P
modifications: Aib2, αMeF(2F)6, 4Pal10, αMeL13, Orn16, Aib20, αMeY25, K17 and K24: K(AEEA3-(γ-Glu)-CO-(CH2)12-CO2H), C-terminal NH2
B22: Example 54 (peptide)
peptide: B1 peptide
modifications: Aib2, αMeF(2F)6, Ac6c10, αMeL13, Orn16, Aib20, D-Glu24, αMeY25, K17 and K31: K(AEEA2-(γ-Glu)-CO-(CH2)12-CO2H), C-terminal NH2
B23: Example 59 (peptide)
peptide: B1 peptide
modifications: Aib2, αMeF(2F)6, hTyr10, αMeL13, Orn16, Aib20, D-Glu24, αMeY25, K17 and K31: K(AEEA2-(γ-Glu)-CO-(CH2)12-CO2H), C-terminal NH2
B24: Example 55 (peptide)
peptide: B1 peptide
modifications: Aib2, αMeF(2F)6, Bip10, αMeL13, Orn16, Aib20, D-Glu24, αMeY25, K17 and K31: K(AEEA2-(γ-Glu)-CO-(CH2)12-CO2H), C-terminal NH2
B25: Example 82 (peptide)
peptide: B1 peptide with F22X, X24K, K31P
modifications: Aib2, αMeF(2F)6, 4Pal10, αMeL13, Orn16, Aib20, αMeF22, αMeY25, K17 and K24: K(AEEA2-(γ-Glu)-CO-(CH2)12-CO2H), C-terminal NH2
B26: Example 70 (peptide)
peptide: B1 peptide with K17I, X24K, E28K, K31P
modifications: Aib2, αMeF(2F)6, 4Pal10, αMeL13, Orn16, Aib20, αMeY25, K24 and K28: K(AEEA2-(γ-Glu)-CO-(CH2)12-CO2H), C-terminal NH2
B27: Example 61 (peptide)
peptide: B1 peptide with F22X
modifications: Aib2, αMeF(2F)6, 4Pal10, αMeL13, Orn16, Aib20, 2ClPhe22, D-Glu24, αMeY25, K17 and K31: K(AEEA2-(γ-Glu)-CO-(CH2)12-CO2H), C-terminal NH2
B28: Example 81 (peptide)
peptide: B1 peptide with X24K, K31P
modifications: Aib2, αMeF(2F)6, 4Pal10, αMeL13, Orn16, Aib20, αMeY25, K17 and K24: K(AEEA2-CO-(CH2)12-CO2H), C-terminal NH2
B29: Example 79 (peptide)
peptide: B1 peptide with X24K, K31P
modifications: Aib2, αMeF(2F)6, 4Pal10, αMeL13, Orn16, Aib20, αMeY25, K17 and K24: K(AEEA-(γ-Glu)-CO-(CH2)12-CO2H), C-terminal NH2
B30: Example 64 (peptide)
peptide: B1 peptide with F22X
modifications: Aib2, αMeF(2F)6, 4Pal10, αMeL13, Orn16, Aib20, 3FPhe22, D-Glu24, αMeY25, K17 and K31: K(AEEA2-(γ-Glu)-CO-(CH2)12-CO2H), C-terminal NH2
B31: Example 69 (peptide)
peptide: B1 peptide with K17I, E21K, X24K, K31P
modifications: Aib2, αMeF(2F)6, 4Pal10, αMeL13, Orn16, Aib20, αMeY25, K21 and K24: K(AEEA2-(γ-Glu)-CO-(CH2)12-CO2H), C-terminal NH2
B32: Example 72 (peptide)
peptide: YXEGTXTSDXSIXLDXIAQXEFIKXLIEGGPSSGAPPPSK
modifications: Aib2, αMeF(2F)6, 4Pal10, αMeL13, Orn16, Aib20, αMeY25, K24 and K40: K(AEEA2-(γ-Glu)-CO-(CH2)12-CO2H), C-terminal NH2
B33: Example 75 (peptide)
peptide: B32 peptide with E21K, K24X
modifications: Aib2, αMeF(2F)6, 4Pal10, αMeL13, Orn16, Aib20, D-Glu24, αMeY25, K21 and K40: K(AEEA2-(γ-Glu)-CO-(CH2)12-CO2H), C-terminal NH2

Key:
Assay in all cases: cell-based or functional assay
human GIP receptor = target: T1, human GIP receptor
human glucagon receptor = human glucagon receptor (human, UniProt P47871 26-477)
human GLP-1 receptor = human GLP-1 receptor (human, UniProt P43220 24-463)

Binder | EC50, cAMP (human GIP receptor) [nM] | EC50, cAMP (human glucagon receptor) [nM] | EC50, cAMP (human GLP-1 receptor) [nM] | Emax, cAMP (human GLP-1 receptor) [%] | Emax, cAMP (human GIP receptor) [%]
B1 | 0.00962 | > 9950 | 0.137 | – | –
B2 | 0.0168 | > 9950 | 0.355 | – | –
B3 | 0.0139 | > 9950 | 0.3 | – | –
B4 | 0.0135 | > 9950 | 0.14 | – | –
B5 | 0.0105 | > 9950 | 0.668 | 95.9 | –
B6 | 0.0171 | > 9950 | 0.246 | – | 93.8
B7 | 0.00795 | > 9950 | 2.63 | 91.7 | –
B8 | 0.0211 | > 9950 | 0.48 | 99.4 | –
B9 | 0.00327 | > 9950 | 0.00676 | – | –
B10 | 0.00307 | > 9950 | 0.0157 | – | –
B11 | 0.0205 | > 9950 | 0.527 | – | –
B12 | 0.0288 | > 9950 | 3.03 | 87 | –
B13 | 0.0158 | > 9950 | 0.194 | – | 89.2
B14 | 0.0176 | > 9950 | 1.86 | 90.6 | –
B15 | 0.0126 | > 9950 | 0.19 | – | –
B16 | 0.0156 | > 9950 | 0.334 | – | 93.3
B17 | 0.0145 | > 9950 | 0.286 | – | –

Binder | EC50, cAMP (human GIP receptor) [nM] | EC50, cAMP (human glucagon receptor) [nM] | EC50, cAMP (human GLP-1 receptor) [nM] | Emax, cAMP (human GLP-1 receptor) [%] | Emax, cAMP (human GIP receptor) [%]
B18 | 0.0223 | > 9950 | 0.451 | – | 89.6
B19 | 0.0138 | > 9950 | 0.205 | – | 90.3
B20 | 0.0207 | > 9950 | 0.437 | – | 97.1
B21 | 0.0245 | > 9950 | 0.718 | – | 92.4
B22 | 0.0675 | > 9950 | 0.538 | – | 113
B23 | 0.024 | > 9950 | 0.202 | – | 89.2
B24 | 0.0207 | > 9950 | 0.154 | – | –
B25 | 0.0206 | > 9950 | 4.78 | – | 81.4
B26 | 0.0182 | > 9950 | 0.283 | – | 89.1
B27 | 0.012 | > 9950 | 1.35 | 82.9 | –
B28 | 0.0114 | > 9950 | 0.176 | – | –
B29 | 0.013 | > 9950 | 0.223 | – | –
B30 | 0.0158 | > 9950 | 0.557 | 97.3 | –
B31 | 0.0265 | > 9950 | 0.276 | – | 99
B32 | 0.016 | > 9950 | 0.245 | – | 96.5
B33 | 0.0182 | > 9950 | 0.411 | – | 92.3
